The source of these data is patent publication US20240115720A1, “ANTIBODY-PYRROLOBENZODIAZEPINE DERIVATIVE CONJUGATE” (MEMORIAL SLOAN KETTERING CANCER CENTER, priority 2021, published 2024).

For assay [1], the target named is T1, DLL3 (Homo sapiens, UniProt Q9NYJ7).
T1 sequence (Q9NYJ7 27-618): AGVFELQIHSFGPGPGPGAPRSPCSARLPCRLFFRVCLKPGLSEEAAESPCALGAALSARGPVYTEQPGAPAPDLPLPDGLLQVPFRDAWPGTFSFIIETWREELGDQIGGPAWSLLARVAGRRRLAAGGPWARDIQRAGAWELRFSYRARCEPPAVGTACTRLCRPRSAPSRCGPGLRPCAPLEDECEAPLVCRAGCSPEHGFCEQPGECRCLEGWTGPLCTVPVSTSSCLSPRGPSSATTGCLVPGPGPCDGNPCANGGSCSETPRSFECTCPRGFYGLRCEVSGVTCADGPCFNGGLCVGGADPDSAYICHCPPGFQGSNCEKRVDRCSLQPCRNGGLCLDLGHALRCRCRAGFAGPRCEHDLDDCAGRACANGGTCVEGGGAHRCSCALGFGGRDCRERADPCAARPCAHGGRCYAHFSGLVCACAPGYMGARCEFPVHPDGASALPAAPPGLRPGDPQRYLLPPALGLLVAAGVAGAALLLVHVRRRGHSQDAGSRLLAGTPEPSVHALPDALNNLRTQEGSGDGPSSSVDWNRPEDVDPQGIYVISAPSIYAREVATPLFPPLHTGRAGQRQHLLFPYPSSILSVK
Briefly: Selectivity of binding among delta-like ligands (FIG. 11).

The target of assay [2] is DLL4 (Homo sapiens, UniProt Q9NR61). The description is as above.
Chain of DLL4 (Q9NR61 27-685): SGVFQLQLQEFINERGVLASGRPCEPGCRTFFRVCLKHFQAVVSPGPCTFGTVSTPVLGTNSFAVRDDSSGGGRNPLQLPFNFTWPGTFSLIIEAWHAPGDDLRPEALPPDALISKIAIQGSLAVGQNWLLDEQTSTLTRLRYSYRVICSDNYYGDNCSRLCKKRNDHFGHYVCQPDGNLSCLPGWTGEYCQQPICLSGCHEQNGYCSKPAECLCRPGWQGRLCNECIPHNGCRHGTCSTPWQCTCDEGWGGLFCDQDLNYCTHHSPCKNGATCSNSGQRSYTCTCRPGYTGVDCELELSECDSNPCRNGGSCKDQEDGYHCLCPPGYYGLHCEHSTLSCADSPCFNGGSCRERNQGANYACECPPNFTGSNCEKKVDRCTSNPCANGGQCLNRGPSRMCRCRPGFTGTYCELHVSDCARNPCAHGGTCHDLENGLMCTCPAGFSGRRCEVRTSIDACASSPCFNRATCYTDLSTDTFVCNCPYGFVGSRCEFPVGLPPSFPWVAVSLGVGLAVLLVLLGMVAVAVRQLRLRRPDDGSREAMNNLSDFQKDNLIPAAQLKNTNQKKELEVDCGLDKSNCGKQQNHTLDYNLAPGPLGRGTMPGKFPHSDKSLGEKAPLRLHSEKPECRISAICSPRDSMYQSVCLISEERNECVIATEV
Assay [3] has as its system 293 (negative control). Nature of the assay: Flow cytometry binding to 293 cells (negative control). The conditions noted are these: 10 μg/ml. As to the method:
The four monoclonal antibodies (6-G23-F, 2-C8-A, 7-I1-B and 10-O18-A) were tested for their ability to bind to mouse and cynomolgous DLL3 as well as endogenous human DLL3 by flow cytometry. For this purpose, HEK293 cells were transfected with plasmid DNA encoding full-length human, mouse or cynomolgous DLL3 and used in the experiment. Briefly […] transfected HEK293 cells or NCI-H82 primary cells were added in FACS buffer PBS 0.5% BSA to the wells of a 96 well U bottom plate and purified monoclonal added to 10 μg/ml. After 30 minutes incubation at 4° C. the cells were washed 3 times in FACS buffer and incubated with a PE labelled F(ab)2 anti-mouse IgG H and L 2nd stage. After another 30 minutes incubation at 4° C. the cells were washed three times in FACS buffer and analyzed on the flow cytometer. Data are presented at the ratio of the Mean Fluorescent Intensity for the monoclonal divided by the background staining with the 2nd stage.
A general note: A flow cytometer gives signals particle by particle.

In assay [4] the target is T2, Histidine-tagged DLL3 antigen (DLL3-His) (Homo sapiens, UniProt Q9NYJ7).
T2 sequence (Q9NYJ7 27-479): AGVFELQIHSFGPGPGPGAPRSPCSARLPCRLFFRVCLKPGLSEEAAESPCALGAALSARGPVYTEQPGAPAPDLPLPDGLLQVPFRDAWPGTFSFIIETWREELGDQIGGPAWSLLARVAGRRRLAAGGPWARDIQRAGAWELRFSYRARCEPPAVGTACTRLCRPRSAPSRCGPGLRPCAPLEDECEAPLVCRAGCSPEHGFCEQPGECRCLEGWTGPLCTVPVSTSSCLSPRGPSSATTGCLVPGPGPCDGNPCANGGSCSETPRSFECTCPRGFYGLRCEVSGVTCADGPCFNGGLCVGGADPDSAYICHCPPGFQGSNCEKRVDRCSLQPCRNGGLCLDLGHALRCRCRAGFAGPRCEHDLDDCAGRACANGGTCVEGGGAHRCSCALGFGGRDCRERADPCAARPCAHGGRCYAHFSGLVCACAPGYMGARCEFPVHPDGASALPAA
Briefly: Pairwise epitope binning, Carterra array SPR. The conditions noted are these: pairwise competition for binding to DLL3-His. As to the method: The panel of purified anti-DLL3 monoclonal antibodies and the reference monoclonal antibody were subjected to pairwise epitope binning on a Carterra® array surface plasmon resonance (SPR) assay platform (Carterra® Inc., Salt Lake City UT) where each monoclonal antibody was tested for the capture of Histidine-tagged DLL3 antigen (DLL3-His), and also for competing with every other antibody in the panel for the binding to DLL3-His. The antibodies were immobilized on a HC200M chip (ligand) through standard amine coupling techniques by the print array method. Then in each cycle antigen was injected across the entire array followed by a single antibody (analyte). At the end of each cycle the surface was regenerated to remove antigen and analyte before a new cycle started. As shown in the Table below, three different bins were identified with the panel with 7-I1-B and 2-C8-A mapping to bin 2 while 6-G23-F was in bin 3 and 10-O18-A was in bin 1.

In assay [5] the target is T3, DLL1 (Homo sapiens, UniProt O00548).
T3 sequence (O00548 18-723): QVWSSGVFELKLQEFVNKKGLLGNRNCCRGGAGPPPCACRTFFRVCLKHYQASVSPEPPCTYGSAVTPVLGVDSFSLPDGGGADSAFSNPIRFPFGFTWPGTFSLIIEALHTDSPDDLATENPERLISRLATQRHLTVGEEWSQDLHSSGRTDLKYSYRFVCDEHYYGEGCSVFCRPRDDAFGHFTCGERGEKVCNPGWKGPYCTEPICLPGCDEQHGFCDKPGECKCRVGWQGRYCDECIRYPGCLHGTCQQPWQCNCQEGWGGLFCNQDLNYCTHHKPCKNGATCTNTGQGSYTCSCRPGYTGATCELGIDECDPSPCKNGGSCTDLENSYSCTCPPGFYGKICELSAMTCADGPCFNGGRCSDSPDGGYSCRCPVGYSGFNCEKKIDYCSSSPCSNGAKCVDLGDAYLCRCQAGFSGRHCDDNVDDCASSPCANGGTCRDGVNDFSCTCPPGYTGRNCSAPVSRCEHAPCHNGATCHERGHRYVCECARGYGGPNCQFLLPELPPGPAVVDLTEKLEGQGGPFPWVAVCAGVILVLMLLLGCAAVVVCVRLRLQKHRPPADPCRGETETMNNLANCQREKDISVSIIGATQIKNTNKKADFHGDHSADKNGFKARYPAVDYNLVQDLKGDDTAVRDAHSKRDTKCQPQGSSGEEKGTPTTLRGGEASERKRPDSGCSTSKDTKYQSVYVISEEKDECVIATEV
Nature of the assay: Selectivity of binding among delta-like ligands (FIG. 11).

Assay [6] addresses T1, DLL3. Briefly: 4/37 internalization assay (staining at 4° C. versus 37° C., flow cytometry). In kind it is cell-based. The conditions noted are these: NCI-H82 cells, compared with reference monoclonal antibody SC16. More on the design: endogenous in cells; host or cells: NCI-H82. As to the method:
The four monoclonal antibodies (6-G23-F, 2-C8-A, 7-I1-B and 10-O18-A) were compared for their ability to internalize DLL3 by comparing the staining at 4° C. with that at 37° C. A reference monoclonal antibody SC16, which is known to internalize via DLL3 and to have ADC activity, and which was previously reported in the literature, was used as the positive control for internalization. NCI-H82 cells in exponential growth were harvested with trypsin/EDTA, washed once in RPMI containing 10% fetal calf serum (FCS) and resuspended in DMEM supplemented with 10% FCS at 2×10^7 cells/ml. 100 μl (2×10^6 cells) were added to U bottom 96 well plates. The test monoclonal antibodies (6-G23-F, 2-C8-A, 7-I1-B or 10-O18-A) or the reference monoclonal antibody were added to separate wells to give a final concentration of 10 μg/ml in duplicate plates. […] After 30 minutes incubation at 4° C. the cells were washed three times in cold wash buffer and either fixed in PBS 0.5% paraformaldehyde and analyzed by flow cytometry within 48 hours. The mean fluorescent intensity (MFI) ratios calculated by dividing the MFI obtained from the control plate (which incubated with the antibodies at 4° C.) by the corresponding MFI obtained from the experimental plate (which incubated with the antibodies at 37° C.) was taken as a relative measure of internalization. […]

B1: 2-C8-A: anti-DLL3 monoclonal antibody, VH SEQ ID NO: 12 and VL SEQ ID NO: 17 (antibody, V domains shown)
VH: EVQLVESGGGLVQPGGSQRLSCAASGFTFSSYWMNWVRQAPGKGLEWVANIKEDGSEKYYVDSVKGRFTISRDNAKNSLYLQMNSLRAEDTAVYYCARDPGWAPFDYWGQGTLVTVSS
VL: DIQMSQSPSSLSASVGDRVTITCRASQGISNYLAWFQQKPGKAPKSLIYAASSLQSGVPSKFSGSGSGTDFTLAISSLQPEDFATYYCQQYNSFPYTFGQGTTLEIK
As to B1, the “binding to DLL3” value in assay [1] is reported as “selectively bind DLL3”. In assay [2], the “binding to DLL4” value is “not DLL1 or DLL4”. Moreover, the “293 (negative control) (ratio of MFI for the monoclonal divided by background staining with the 2nd stage)” value in assay [3] was 0.59. In assay [4], the “Epitope Bin” value was found to be 2. Moreover, the “binding to DLL1” value in assay [5] is given as “not DLL1 or DLL4”. In assay [6], the “ability to internalize DLL3” value was “able to internalize on binding DLL3 but not to the extent of the reference monoclonal antibody”.
